One molecule from patent publication EP4806514A2 (Lepu Biopharma Co., Ltd., dated 2025) can be followed below.

In the experiment the target is T1, rhesus CDH17 overexpressed on HEK293 cells (HEK293-rhesus CDH17) (rhesus, UniProt A0A1D5R2B4 23-832).
T1 construct: whole, on cells
T1 sequence: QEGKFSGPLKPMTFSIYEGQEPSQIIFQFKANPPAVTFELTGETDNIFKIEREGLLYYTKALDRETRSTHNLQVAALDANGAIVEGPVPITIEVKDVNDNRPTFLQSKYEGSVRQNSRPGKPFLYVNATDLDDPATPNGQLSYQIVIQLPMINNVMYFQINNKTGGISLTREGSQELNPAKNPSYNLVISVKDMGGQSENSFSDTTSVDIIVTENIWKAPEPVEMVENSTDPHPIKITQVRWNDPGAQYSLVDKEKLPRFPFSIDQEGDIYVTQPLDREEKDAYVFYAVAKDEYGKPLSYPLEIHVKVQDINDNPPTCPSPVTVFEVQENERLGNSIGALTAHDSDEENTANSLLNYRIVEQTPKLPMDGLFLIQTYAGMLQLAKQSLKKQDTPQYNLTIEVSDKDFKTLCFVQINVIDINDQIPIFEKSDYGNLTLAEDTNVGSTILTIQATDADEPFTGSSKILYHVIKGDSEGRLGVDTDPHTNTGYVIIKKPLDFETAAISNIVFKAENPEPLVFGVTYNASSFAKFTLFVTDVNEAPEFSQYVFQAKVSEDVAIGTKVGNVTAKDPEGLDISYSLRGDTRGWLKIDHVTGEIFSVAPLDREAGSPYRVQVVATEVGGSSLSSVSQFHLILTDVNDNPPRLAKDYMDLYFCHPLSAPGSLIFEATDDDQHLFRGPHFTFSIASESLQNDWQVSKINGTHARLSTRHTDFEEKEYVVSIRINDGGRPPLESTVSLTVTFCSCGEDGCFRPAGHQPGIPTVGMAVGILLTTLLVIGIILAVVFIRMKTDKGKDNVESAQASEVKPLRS
The experiment in a line: flow cytometry, HEK293-rhesus CDH17 cells.

B1: 29H8D3-z12 (antibody, V domains shown)
VH: QVQLVQSGAEVKKPGASVKVSCKASGYTFTDHTIHWMRQRPGQGLEWIGYIYPRDGYTKYNEKFKDRATLTADTSTSTAYMELRSLRSDDTAVYYCARFYYGYWYFDVWGQGTTVTVSS
VL: DIVMTQSPLSLPVTPGEPASISCRSSKSLLRSNGNTYLYWFLQKPGQSPQVLIYRMSNLASGVPDRFSGSGSGTDFTLKISRVEAEDVGVYYCMQHLEYPFTFGQGTKLEIK
notes: Humanized, human IgG1 constant region; also called 29H8D3-z12 mAb
B1 yielded an EC50 of 0.225 nM.

As usually defined, the EC50 is the midpoint of the concentration-response curve. Read a low EC50 as a more potent agent.
